Source: patent publication US20190100602A1 (INSERM INSTITUT NATIONAL DE LA SANT ET DE LA RECHERCHE M …, published 2019)
Like-named read-outs stand apart in the source and are kept apart here. Each block holds one binder with its values, some of them ahead of it.

How the values were obtained:
human antithrombin [1] = target: T1, human antithrombin (human, UniProt P01008 33-464); experiment: cell-based or functional assay
human antithrombin [2] = target: T1, human antithrombin; experiment: cell-based or functional assay; remark: listed apart in the source
human antithrombin [3] = target: T1, human antithrombin; experiment: cell-based or functional assay; remark: listed apart in the source
human antithrombin [4] = target: T1, human antithrombin; experiment: cell-based or functional assay; remark: listed apart in the source
human antithrombin [5] = target: T1, human antithrombin; experiment: cell-based or functional assay; remark: listed apart in the source
human antithrombin [6] = target: T1, human antithrombin; experiment: BLI (Octet-QK), sdAb coupled to sensor, antithrombin 12.5-50 ug/ml; apparent KD
Description: The interaction between sdAbs KB-AT-001, KB-AT-002, KB-AT-003 and KB-AT-006 versus human antithrombin was further analyzed via biolayer-interferometry analysis using Octet-QK equipment in order to determine apparent dissociation constants (KD,app). To this end, sdAbs KB-AT-001, KB-AT-002, KB-AT-003 and KB-AT-006 were diluted in 0.1 M Mes (pH 5.0) to a concentration of 200 microgram/ml for coupling to EDC/NHS-activated amine-reactive biosensors (Fort6bio, Menlo Park, Calif., USA). Sensors were rehydrated in 0.2 ml 0.1 M MES, pH 5.0 for 300 sec. Sensors were then activated via incubation with 0.1 ml 0.2 M EDC/0.095 M NHS mixture for 300 sec and subsequently incubated with 0.1 ml sdAb-solution for 600 sec. […] Following this association phase, sensors were transferred to wells containing PBS-T and incubated for 900 sec, allowing dissociation of the antithrombin-sdAb complex. Obtained data were subsequently analyzed using Octet-QK data analysis software (Origin vs 4) to estimate KD,app.

rabbit antithrombin = target: T2, rabbit antithrombin (rabbit); experiment: ELISA, sdAb coated, plasma 1/4, bound antithrombin probed with polyclonal anti-antithrombin
T2 construct: Native protein in plasma diluted 1/4; also called rabbit AT; antithrombin in rabbit plasma
Description: (§1) sdAbs KB-AT-001, -002. -003, -004, -005, -006, and -007 were immobilized (10 microgram/ml) in 10 mM NaHCO₃, 50 mM Na2CO3 (pH 9.5) in a volume of 50 microliter in half-well microtiter plates (Greiner Bio-One, Les Ulis, France) for 16 h at 4° C. As a positive control, polyclonal anti-antithrombin antibodies (MATIII-EIA kit, Affinity biologicals, Ancaster Canada) were immobilized in a similar fashion. As a negative control, the anti-von Willebrand sdAb KB-VWF-006 was immobilized. After washing the wells three times with 100 microliter/well using Tris-buffered saline (pH 7.6) supplemented with 0.1% Tween-20 (TBS-T), wells were blocked with 100 microliter/well of TBS-T supplemented with 3% bovine serum albumin (BSA) for 30 min at 37° C. Wells were washed as described above, and subsequently the following plasma preparations (diluted ¼ in TBS-T/3% BSA, 100 microliter per well, 2 hours at 37° C.) were added to each of the immobilized sdAbs and both types of control wells: rabbit plasma, canine plasma, simian plasma, bovine plasma, porcine plasma, rat plasma, murine plasma and human plasma.
(§2) Wells were then washed three times with 100 microliter/well using TBS-T. Bound antithrombin was probed with peroxidase-labeled polyclonal anti-antithrombin antibodies (MATIII-EIA kit, Affinity biologicals, Ancaster Canada; diluted 1/100) for 2 hours at 37° C. with 50 microliter per well. Wells were then washed three times with 100 microliter/well using TBS-T. Residual peroxidase activity was detected by measuring peroxidase-mediated hydrolysis of 3,3′,5,5′-tetramethylbenzidine.
(§3) Negative binding (−) was defined as optical density (OD) being ≤0.1, moderate positive binding (+) was defined as OD being >0.1 and <0.5, strongly positive binding (++) was defined as OD being ≥0.5. […] All plasma preparations had moderate or strongly positive binding to the positive control (polyclonal anti-antithrombin antibodies).

bovine antithrombin = target: T3, bovine antithrombin (bovine, UniProt P41361 33-465); experiment: as above
T3 construct: Native protein in plasma diluted 1/4; also called bovine AT; antithrombin in bovine plasma
Description: as §1, §2, §3

porcine antithrombin = target: T4, porcine antithrombin (porcine); experiment: as above
T4 construct: Native protein in plasma diluted 1/4; also called porcine AT; antithrombin in porcine plasma
Description: as §1, §2, §3

canine antithrombin = target: T5, canine antithrombin (canine); experiment: ELISA, sdAb coated, plasma 1/4, bound antithrombin probed with polyclonal anti-antithrombin; grade by OD
T5 construct: Native protein in plasma diluted 1/4; also called canine AT; antithrombin in canine plasma
Description: as §1, §2, §3

simian antithrombin = target: T6, simian antithrombin (simian); experiment: as above
T6 construct: Native protein in plasma diluted 1/4; also called simian AT; antithrombin in simian plasma
Description: as §1, §2, §3

rat antithrombin = target: T7, rat antithrombin (rat, UniProt Q8VHJ4); experiment: as above
T7 construct: Native protein in plasma diluted 1/4; also called rat AT; antithrombin in rat plasma
Description: as §1, §2, §3

human antithrombin [7] = target: T1, human antithrombin; experiment: as above
Description: as §1, §2, §3

murine antithrombin = target: T8, murine antithrombin (mouse, UniProt P32261 33-465); experiment: as above
T8 construct: also called mouse antithrombin; murine AT
Description: as §1, §2, §3

T1 sequence (P01008 33-464 limits assumed): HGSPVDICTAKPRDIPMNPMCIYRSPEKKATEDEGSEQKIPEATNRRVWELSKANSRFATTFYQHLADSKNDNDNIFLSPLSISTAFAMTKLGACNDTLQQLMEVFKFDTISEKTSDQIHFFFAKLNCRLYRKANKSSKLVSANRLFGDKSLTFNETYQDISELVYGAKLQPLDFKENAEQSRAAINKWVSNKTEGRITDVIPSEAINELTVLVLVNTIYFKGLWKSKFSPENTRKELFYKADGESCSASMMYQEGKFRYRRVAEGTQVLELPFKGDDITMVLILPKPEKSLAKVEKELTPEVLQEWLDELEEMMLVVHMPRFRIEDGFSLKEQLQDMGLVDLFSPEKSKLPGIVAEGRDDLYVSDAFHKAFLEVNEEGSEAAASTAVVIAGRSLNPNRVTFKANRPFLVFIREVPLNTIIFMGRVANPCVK
T8 sequence (P32261 33-465 limits assumed): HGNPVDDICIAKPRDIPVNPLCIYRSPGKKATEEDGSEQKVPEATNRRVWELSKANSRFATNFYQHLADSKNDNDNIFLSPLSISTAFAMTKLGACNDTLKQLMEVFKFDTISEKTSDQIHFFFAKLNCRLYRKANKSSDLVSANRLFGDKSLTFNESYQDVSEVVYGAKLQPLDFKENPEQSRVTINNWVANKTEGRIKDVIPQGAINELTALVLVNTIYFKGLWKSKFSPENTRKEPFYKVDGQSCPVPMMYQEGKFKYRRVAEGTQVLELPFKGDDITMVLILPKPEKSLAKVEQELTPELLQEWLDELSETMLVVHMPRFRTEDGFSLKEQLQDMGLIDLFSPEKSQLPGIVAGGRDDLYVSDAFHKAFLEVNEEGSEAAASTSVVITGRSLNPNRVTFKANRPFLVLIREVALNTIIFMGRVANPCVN
T3 sequence (P41361 33-465): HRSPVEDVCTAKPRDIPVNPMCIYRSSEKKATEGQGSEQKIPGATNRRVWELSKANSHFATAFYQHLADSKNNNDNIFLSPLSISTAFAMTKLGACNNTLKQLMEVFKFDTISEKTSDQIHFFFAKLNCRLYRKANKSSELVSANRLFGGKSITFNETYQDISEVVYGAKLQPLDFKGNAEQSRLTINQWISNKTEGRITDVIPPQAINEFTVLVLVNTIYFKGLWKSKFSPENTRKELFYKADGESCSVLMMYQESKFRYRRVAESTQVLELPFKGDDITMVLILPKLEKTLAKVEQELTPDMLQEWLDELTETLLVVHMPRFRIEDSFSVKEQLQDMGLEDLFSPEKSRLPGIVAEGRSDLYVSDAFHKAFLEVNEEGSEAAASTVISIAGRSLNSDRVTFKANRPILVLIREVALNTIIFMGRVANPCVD

B2: KB-AT-001/002 (bispecific antibody)
chain: QVQLQESGGGLVQAGGSLRLSCAASGRTFRNYVMGWFRQAPGKDPEFIAGINRSGAITYYGDSVKGRFTISRDNAKNTVSLQMNSLEPEDTAVYYCAAGETTWSIRRDDYDYWGQGTQVTVSSGGGSGGGSGGGSGGGSQVQLVQSGGGLVQAGGSLRLSCAASGRTFNNNGMGWFRQAPGKEREFVAAISWSGGSTYYADSVKGRYIMSRDNAKNTVYLQMNSLKPEDTAVYYCAARTRYNSGLFSRNYDYWGQGTQVTVSS
% antithrombin neutralization (thrombin amidolytic activity on S-2238, with unfractionated heparin) (human antithrombin [2]): 30%
% antithrombin neutralization (factor Xa amidolytic activity on S-2765, with LMW-heparin) (human antithrombin [3]): 57%

B4: KB-AT-001/003 (bispecific antibody)
chain: QVQLQESGGGLVQAGGSLRLSCAASGRTFRNYVMGWFRQAPGKDPEFIAGINRSGAITYYGDSVKGRFTISRDNAKNTVSLQMNSLEPEDTAVYYCAAGETTWSIRRDDYDYWGQGTQVTVSSGGGSGGGSGGGSGGGSQVQLQESGGGLVQPGGSLRLSCAASALTFSSRAWAWYRQAPGKQRELVASITGGGTTNYADSVKGRFTISRDNAKNTVYLQMNSLKPEDTAVHYCNGYRYTYAWGQGTQVTQVTVSS
% antithrombin neutralization (thrombin amidolytic activity on S-2238, with unfractionated heparin) (human antithrombin [2]): 56%
% antithrombin neutralization (factor Xa amidolytic activity on S-2765, with LMW-heparin) (human antithrombin [3]): 62%

B7: KB-AT-002/003 (bispecific antibody)
chain: QVQLQESGGGLVQAGGSLRLSCAASGRTFNNNGMGWFRQAPGKEREFVAAISWSGGSTYYADSVKGRYIMSRDNAKNTVYLQMNSLKPEDTAVYYCAARTRYNSGLFSRNYDYWGQGTQVTVSSGGGSGGGSGGGSGGGSQVQLQESGGGLVQPGGSLRLSCAASALTFSSRAWAWYRQAPGKQRELVASITGGGTTNYADSVKGRFTISRDNAKNTVYLQMNSLKPEDTAVHYCNGYRYTYAWGQGTQVTVSS
% antithrombin neutralization (thrombin amidolytic activity on S-2238, with unfractionated heparin) (human antithrombin [2]): 47%
% antithrombin neutralization (factor Xa amidolytic activity on S-2765, with LMW-heparin) (human antithrombin [3]): 68%

B9: KB-AT-001/005 (other)
chain: QVQLQESGGGLVQAGGSLRLSCAASGRTFRNYVMGWFRQAPGKDPEFIAGINRSGAITYYGDSVKGRFTISRDNAKNTVSLQMNSLEPEDTAVYYCAAGETTWSIRRDDYDYWGQGTQVTVSSGGGSGGGSGGGSGGGSEVQLVESGGGLVQPGGSLRLSCEASGRDFNDAALGWSRQVPGKARETVAMITSGGVRNYAETVKDRFTISRDNAKNTVYLDMNNLQPDDTGVYYCKADSFKGDYDTSWYLYWGQGTQVTVSS
% antithrombin neutralization (thrombin amidolytic activity on S-2238, with unfractionated heparin) (human antithrombin [2]): 28%
% antithrombin neutralization (factor Xa amidolytic activity on S-2765, with LMW-heparin) (human antithrombin [3]): 34%

Second part, the binder after the results:

% antithrombin neutralization (thrombin amidolytic activity on S-2238, with unfractionated heparin) (human antithrombin [1]): 99%
B1: KB-AT-1123 (bispecific antibody)
chain: QVQLQESGGGLVQAGGSLRLSCAASGRTFRNYVMGWFRQAPGKDPEFIAGINRSGAITYYGDSVKGRFTISRDNAKNTVSLQMNSLEPEDTAVYYCAAGETTWSIRRDDYDYWGQGTQVTVSSGGGSGGGSGGGSGGGSQVQLQESGGGLVQAGGSLRLSCAASGRTFRNYVMGWFRQAPGKDPEFIAGINRSGAITYYGDSVKGRFTISRDNAKNTVSLQMNSLEPEDTAVYYCAAGETTWSIRRDDYDYWGQGTQVTVSSGGGSGGGSGGGSGGGSQVQLVQSGGGLVQAGGSLRLSCAASGRTFNNNGMGWFRQAPGKEREFVAAISWSGGSTYYADSVKGRYIMSRDNAKNTVYLQMNSLKPEDTAVYYCAARTRYNSGLFSRNYDYWGQGTQVTVSSGGGSGGGSGGGSGGGSQVQLQESGGGLVQPGGSLRLSCAASALTFSSRAWAWYRQAPGKQRELVASITGGGTTNYADSVKGRFTISRDNAKNTVYLQMNSLKPEDTAVHYCNGYRYTYAWGQGTQVTQVTVSS

% antithrombin neutralization (thrombin amidolytic activity on S-2238, with unfractionated heparin) (human antithrombin [1]): 97%
B3: KB-AT-113 (bispecific antibody)
chain: QVQLQESGGGLVQAGGSLRLSCAASGRTFRNYVMGWFRQAPGKDPEFIAGINRSGAITYYGDSVKGRFTISRDNAKNTVSLQMNSLEPEDTAVYYCAAGETTWSIRRDDYDYWGQGTQVTVSSGGGSGGGSGGGSGGGSQVQLQESGGGLVQAGGSLRLSCAASGRTFRNYVMGWFRQAPGKDPEFIAGINRSGAITYYGDSVKGRFTISRDNAKNTVSLQMNSLEPEDTAVYYCAAGETTWSIRRDDYDYWGQGTQVTVSSGGGSGGGSGGGSGGGSQVQLQESGGGLVQPGGSLRLSCAASALTFSSRAWAWYRQAPGKQRELVASITGGGTTNYADSVKGRFTISRDNAKNTVYLQMNSLKPEDTAVHYCNGYRYTYAWGQGTQVTQVTVSS

% antithrombin neutralization (thrombin amidolytic activity on S-2238, with unfractionated heparin) (human antithrombin [1]): 29%
B5: KB-AT-112 (bispecific antibody)
chain: QVQLQESGGGLVQAGGSLRLSCAASGRTFRNYVMGWFRQAPGKDPEFIAGINRSGAITYYGDSVKGRFTISRDNAKNTVSLQMNSLEPEDTAVYYCAAGETTWSIRRDDYDYWGQGTQVTVSSGGGSGGGSGGGSGGGSQVQLQESGGGLVQAGGSLRLSCAASGRTFRNYVMGWFRQAPGKDPEFIAGINRSGAITYYGDSVKGRFTISRDNAKNTVSLQMNSLEPEDTAVYYCAAGETTWSIRRDDYDYWGQGTQVTVSSGGGSGGGSGGGSGGGSQVQLVQSGGGLVQAGGSLRLSCAASGRTFNNNGMGWFRQAPGKEREFVAAISWSGGSTYYADSVKGRYIMSRDNAKNTVYLQMNSLKPEDTAVYYCAARTRYNSGLFSRNYDYWGQGTQVTVSS

percentage of neutralization of antithrombin-mediated factor Xa inhibition, with LMW-heparin (human antithrombin [4]): < 15%
percentage of neutralization of antithrombin-mediated thrombin inhibition, with unfractionated heparin (human antithrombin [4]): < 5%
% antithrombin neutralization (thrombin amidolytic activity on S-2238, no heparin) (human antithrombin [5]): 67%
Kd (human antithrombin [6]): 0.4 nM
OD (rabbit antithrombin): ≤ 0.1 od
OD (bovine antithrombin): ≤ 0.1 od
OD (porcine antithrombin): ≤ 0.1 od
OD (canine antithrombin): 0.1 to 0.5 od
OD (simian antithrombin): ≥ 0.5 od
OD (rat antithrombin): 0.1 to 0.5 od
OD (human antithrombin [7]): ≥ 0.5 od
OD (murine antithrombin): ≥ 0.5 od
B6: KB-AT-003 (VHH)
VHH: QVQLVQSGGGLVQPGGSLRLSCAASALTFSSRAWAWYRQAPGKQRELVASITGGGTTNYADSVKGRFTISRDNAKNTVYLQMNSLKPEDTAVHYCNGYRYTYAWGQGTQVTVSS
notes: Monovalent anti-antithrombin single-domain antibody; also called sdAb KB-AT-003

% antithrombin neutralization (thrombin amidolytic activity on S-2238, with unfractionated heparin) (human antithrombin [1]): 26%
B8: KB-AT-115 (other)
chain: QVQLQESGGGLVQAGGSLRLSCAASGRTFRNYVMGWFRQAPGKDPEFIAGINRSGAITYYGDSVKGRFTISRDNAKNTVSLQMNSLEPEDTAVYYCAAGETTWSIRRDDYDYWGQGTQVTVSSGGGSGGGSGGGSGGGSQVQLQESGGGLVQAGGSLRLSCAASGRTFRNYVMGWFRQAPGKDPEFIAGINRSGAITYYGDSVKGRFTISRDNAKNTVSLQMNSLEPEDTAVYYCAAGETTWSIRRDDYDYWGQGTQVTVSSGGGSGGGSGGGSGGGSEVQLVESGGGLVQPGGSLRLSCEASGRDFNDAALGWSRQVPGKARETVAMITSGGVRNYAETVKDRFTISRDNAKNTVYLDMNNLQPDDTGVYYCKADSFKGDYDTSWYLYWGQGTQVTVSS
